Data from paper PMC2064105 (The Journal of Cell Biology, 2007).

Biological target: T1, purified recombinant Kap121p (S. cerevisiae, UniProt P32337 1-1089)
T1 sequence (looked up): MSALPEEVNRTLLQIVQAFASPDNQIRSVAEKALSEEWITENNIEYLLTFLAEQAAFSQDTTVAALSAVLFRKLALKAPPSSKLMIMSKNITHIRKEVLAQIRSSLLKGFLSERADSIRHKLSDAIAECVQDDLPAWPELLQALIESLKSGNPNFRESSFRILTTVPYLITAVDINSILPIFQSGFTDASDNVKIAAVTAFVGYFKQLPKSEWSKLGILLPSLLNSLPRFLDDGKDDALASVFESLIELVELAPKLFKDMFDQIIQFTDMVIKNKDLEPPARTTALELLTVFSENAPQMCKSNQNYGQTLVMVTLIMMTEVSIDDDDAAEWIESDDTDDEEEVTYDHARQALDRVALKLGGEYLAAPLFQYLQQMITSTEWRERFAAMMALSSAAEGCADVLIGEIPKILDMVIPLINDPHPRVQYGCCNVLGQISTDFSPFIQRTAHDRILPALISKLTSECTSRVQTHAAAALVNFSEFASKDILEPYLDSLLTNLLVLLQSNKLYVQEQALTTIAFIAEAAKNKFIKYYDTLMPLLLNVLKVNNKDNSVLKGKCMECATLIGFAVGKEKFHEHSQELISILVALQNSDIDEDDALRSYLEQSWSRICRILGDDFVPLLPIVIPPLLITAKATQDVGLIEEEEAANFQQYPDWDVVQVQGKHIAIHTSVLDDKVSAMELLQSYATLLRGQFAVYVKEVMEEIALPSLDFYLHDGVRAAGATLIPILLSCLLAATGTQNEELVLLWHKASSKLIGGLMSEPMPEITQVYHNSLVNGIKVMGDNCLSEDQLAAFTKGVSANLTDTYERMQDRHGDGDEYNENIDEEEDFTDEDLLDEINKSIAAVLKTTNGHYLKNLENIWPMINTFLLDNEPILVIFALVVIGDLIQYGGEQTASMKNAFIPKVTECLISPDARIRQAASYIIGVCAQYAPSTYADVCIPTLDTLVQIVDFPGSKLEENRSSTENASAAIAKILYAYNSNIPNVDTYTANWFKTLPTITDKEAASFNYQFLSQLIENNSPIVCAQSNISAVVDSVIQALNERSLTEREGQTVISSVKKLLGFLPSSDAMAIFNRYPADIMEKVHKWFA
Assay: pull-down

binding result: binds
B1: purified recombinant Nup53p (natural protein, S. cerevisiae, UniProt Q03790 1-475, looked up)
chain: MADLQKQENSSRFTNVSVIAPESQGQHEQQKQQEQLEQQKQPTGLLKGLNGFPSAPQPLFMEDPPSTVSGELNDNPAWFNNPRKRAIPNSIIKRSNGQSLSPVRSDSADVPAFSNSNGFNNVTFGSKKDPRILKNVSPNDNNSANNNAHSSDLGTVVFDSNEAPPKTSLADWQKEDGIFSSKTDNIEDPNLSSNITFDGKPTATPSPFRPLEKTSRILNFFDKNTKTTPNTASSEASAGSKEGASTNWDDHAIIIFGYPETIANSIILHFANFGEILEDFRVIKDFKKLNSKNMSKSPSLTAQKYPIYTGDGWVKLTYKSELSKSRALQENGIIMNGTLIGCVSYSPAALKQLASLKKSEEIINNKTSSQTSLSSKDLSNYRKTEGIFEKAKAKAVTSKVRNAEFKVSKNSTSFKNPRRLEIKDGRSLFLRNRGKIHSGVLSSIESDLKKREQASKSKKSWLNRLNNWLFGWNDL
